Reference: patent US8512970B2, “Rapid bioluminescence detection assay” (The Secretary of State for Health, priority 2009, dated 2013)

Test: Isoelectric point of reporter kinases (Table 2)
Type: physicochemical

| Molecule | pI Actual (if known) |
| --- | --- |
| S. acidocaldarius: Adenylate kinase (AK) from Sulfolobus acidocaldarius, trimer; reporter kinase (protein, UniProt P35028 1-194, looked up) Adenylate kinase: MKIGIVTGIPGVGKSTVLAKVKEILDNQGINNKIINYGDFMLATALKLGYAKDRDEMRKLSVEKQKKLQIDAAKGIAEEARAGGEGYLFIDTHAVIRTPSGYLPGLPSYVITEINPSVIFLLEADPKIILSRQKRDTTRNRNDYSDESVILETINFARYAATASAVLAGSTVKVIVNVEGDPSIAANEIIRSMK | > 10 |
| T. maritima: Adenylate kinase (AK) from Thermotoga maritima, monomer; reporter kinase (protein, UniProt Q9X1I8 1-220, looked up) Adenylate kinase: MMAYLVFLGPPGAGKGTYAKRLQEITGIPHISTGDIFRDIVKKENDELGKKIKEIMERGELVPDELVNEVVKRRLSEKDCERGFILDGYPRTVAQAEFLDGFLKTQNKELTAAVLFEVPEEVVVQRLTARRICPKCGRIYNLISLPPKEDELCDDCKVKLVQREDDKEETVRHRYKVYLEKTQPVIDYYDKKGILKRVDGTIGIDNVIAEVLKIIGWSDK | ~6.7 |
